Measured values taken from patent publication US20250295687A1, “TREM COMPOSITIONS AND METHODS OF USE FOR TREATING PROLIFERATIVE DISORDERS” (Flagship Pioneering Innovations VI, LLC, priority 2022, published 2025).

Key:
[1] = tested on: nonsense mutation in TP53 (R196X; Arg→TGA) in Calu-6 lung carcinoma cells; experiment: Western blot of full-length p53 after PTC readthrough in Calu-6 cells (Example 6); type: cell-based; details: for PTC suppression / production of full-length p53 protein: 48 hours, Western blotting (FIGS. 1-3)
Method: Calu-6 is a lung cancer cell line known to harbor a nonsense mutation in TP53 (R196X; Arg→TGA) that results in a premature termination codon (PTC). To test PTC readthrough of the TREM, cells were treated with Arg-TGA, Ser-TGA, or Ser-TAG TREMs or with known translational read-through inducing drugs (RIDs).
(§1) To monitor the ability of the TREMs to readthrough the PTC mutation, the expression of TP53 was assessed by Western blotting 48 hours post-TREM delivery into the cells. Cells were washed once with phosphate buffered saline (PBS) and lysed with 100 uL of RIPA buffer (50 mM Tris, pH 8.0, 150 mM NaCl, 1% Nonidet-P40 (NP-40), 0.5% Deoxycholate, 0.1% sodium dodecyl sulfate (SDS)) supplemented with protease inhibitor, for 30 min at 4° C. The protein extracts were then centrifuged at 21,000 g for 15 min and the supernatant was transferred into clean tubes. Protein concentration was determined using a BCA Protein Assay Kit according to the manufacturer's instructions. 20 μg of total protein were loaded into an SDS-PAGE gel and transferred onto nitrocellulose membranes after electrophoresis. The membranes were probed with anti-p53, anti-p21, and anti-β-tubulin antibodies.

NanoLuc with a TGA PTC = experiment: In vivo PTC readthrough of NanoLuc TGA reporter by hydrodynamic gene delivery (FIG. 5B); set-up: species or system mouse
Method: Hydrodynamic gene delivery (HGD) is a simple, fast, safe, and effective method for delivering transgenes in rodent models. A set of plasmids expressing both an eGFP-Luc-TGA reporter and a TREM were designed. To evaluate tolerability and determine optimal plasmid concentration for maximum TREM delivery to the liver, the eGFP-WT Luc plasmid was administered to adult CD-1 mice via tail vein hydrodynamic injection at three doses: 10 μg, 30 μg, and 50 μg. […] Next, 50 μg of DNA in saline […] was administered to mice via tail vein hydrodynamic injection to assess target engagement and PTC readthrough using either 1) eGFP-Nluc TGA reporter plasmid (PL-854), or 2) eGFP-Nluc WT reporter (PL1202), or 3) all-in-one plasmid eGFP-Nluc-TGA reporter with S-TAG (PL-1216), or 4) all-in-one plasmid eGFP-Nluc-TGA reporter with R-TGA (PL-1215).

[2] = tested on: p21 (downstream transcriptional target of p53) in Calu-6 cells; experiment: Western blot of p21 protein levels in Calu-6 cells (p53 functional rescue); type: cell-based
Method: Calu-6 is a lung cancer cell line known to harbor a nonsense mutation in TP53 (R196X; Arg→TGA) that results in a premature termination codon (PTC). To test PTC readthrough of the TREM, cells were treated with Arg-TGA, Ser-TGA, or Ser-TAG TREMs or with known translational read-through inducing drugs (RIDs). Briefly, 6×10^5 cells were seeded into a 6-well plate and transfected with […] of TREM in 15 uL of RNAiMAX+800 uL OptiMEM; 0.5 or 5 mg/mL G418, an aminoglycoside antibiotic; or Ataluren, a TRID that is approved for the treatment of DMD in Europe at the reported maximally effective dose of 10 uM.
as §1
To determine whether the rescued p53 protein was functional, cellular p21 protein levels were measured (FIG. 4). p21 is a downstream transcriptional target and well-established biomarker of p53 activity.

O=C(O)c1cccc(-c2noc(-c3ccccc3F)n2)c1 [Ataluren, reference compound]
percentage of full-length p53 out of the total p53 protein ([1]; Calu-6 cells treated with 10 μM): about 0% | PTC suppression / production of full-length p53 protein ([1]; Calu-6 cells): ineffective

CN[C@@H]1[C@@H](O)[C@@H](O[C@@H]2[C@@H](O)[C@H](O[C@H]3O[C@H]([C@@H](C)O)[C@@H](O)[C@H](O)[C@H]3N)[C@@H](N)C[C@H]2N)OC[C@]1(C)O [G418, reference compound]
rescue of TP53 mRNA levels / expression of truncated p53 protein ([1]; Calu-6 cells): more effective in rescuing mRNA levels | percentage of full-length p53 out of the total p53 protein ([1]; Calu-6 cells treated with 0.5 mg/mL): about 30% | percentage of full-length p53 out of the total p53 protein ([1]; Calu-6 cells treated with 5 mg/mL): about 30% | PTC suppression / production of full-length p53 protein ([1]; Calu-6 cells): marginally increased

B1: Arg-TGA: arginine non-cognate TREM: sequence of ARG-UCU-TREM body but with anticodon UCA instead of UCU (nucleic acid)
chain: GGCUCCGUGGCGCAAUGGAUAGCGCAUUGGACUUCAAAUUCAAAGGUUCCGGGUUCGAGUCCCGGCGGAGUCGCCA
modifications: listed as RNA, chemistry not fully specified
increase in luciferase signal compared to controls (NanoLuc with a TGA PTC; mice, 50 μg of DNA in saline, tail vein hydrodynamic injection, all-in-one plasmid eGFP-Nluc-TGA reporter (FIG. 5B)): ~1000 fold | total flux signal in the liver (NanoLuc with a TGA PTC; mouse, hydrodynamic delivery of plasmid (FIG. 5B)): about 2×10^9 p/s | percentage of full-length p53 of the total p53 protein ([1]; Calu-6 cells treated with 100 nM): about 95% | full-length p53 levels increase relative to cells treated with SEQ ID NO:623 ([1]; Calu-6 cells, 100 nM TREM, vs 100 nM SEQ ID NO:623): about 55 fold | full-length p53 levels increase relative to cells treated with SEQ ID NO:625 ([1]; Calu-6 cells, 100 nM TREM, vs 100 nM SEQ ID NO:625): about 11 fold | full-length p53 levels increase relative to cells treated with Ataluren ([1]; Calu-6 cells, 100 nM TREM, vs 10 μM Ataluren): about 55 fold | full-length p53 levels increase relative to cells treated with 0.5 mg/mL G418 ([1]; Calu-6 cells, 100 nM TREM, vs 0.5 mg/mL G418): about 55 fold | full-length p53 levels increase relative to cells treated with 5 mg/mL G418 ([1]; Calu-6 cells, 100 nM TREM, vs 5 mg/mL G418): about 14 fold | full-length p53 levels increase relative to mock-transfected cells ([1]; Calu-6 cells, 100 nM TREM, vs mock-transfected cells): about 55 fold | full-length p53 levels increase relative to untreated cells ([1]; Calu-6 cells, 100 nM TREM, vs untreated cells): about 55 fold | total p53 that was full length (FIG. 3) ([1]; Calu-6 cells, 48 hours post-TREM delivery, Western blotting): about 90% | PTC suppression / production of full-length p53 protein ([1]; Calu-6 cells): robustly induce PTC suppression | p21 levels increase relative to cells treated with SEQ ID NO:623 ([2]; 100 nM TREM, vs 100 nM SEQ ID NO:623): about 60 fold | p21 levels increase relative to cells treated with SEQ ID NO:625 ([2]; 100 nM TREM, vs 100 nM SEQ ID NO:625): about 30 fold | p21 levels increase relative to cells treated with Ataluren ([2]; 100 nM TREM, vs 10 μM Ataluren): about 60 fold | p21 levels increase relative to cells treated with 0.5 mg/mL G418 ([2]; 100 nM TREM, vs 0.5 mg/mL G418): about 60 fold | p21 levels increase relative to cells treated with 5 mg/mL G418 ([2]; 100 nM TREM, vs 5 mg/mL G418): about 60 fold | p21 levels increase relative to mock-transfected cells ([2]; 100 nM TREM, vs mock-transfected cells): about 60 fold | p21 levels increase relative to untreated cells ([2]; 100 nM TREM, vs untreated cells): about 60 fold | rescue of cellular p21 protein levels (FIG. 4) ([2]; Western blotting): able to rescue p21 protein levels
